This test has as its target fluorescein-labeled FITC-casein. The test is described as follows: fluorescence polarisation.

Here are results for 1 substance from article PMC7984374.

In the case of “ClpB_(K-12) (from UniProt P63284 1-857) (enzyme)”, the dissociation constant (Kd) was 560 nM.
